Values of other authors in PMC6244792.
Values joined by “and” are separate entries in the source; they are usually repeats but may differ in a detail not shown here. Equal entries are not always repeated. Where two headings read alike, the source gives them in different places.

How the values were obtained:
[1] = target: cpFtsY (Arabidopsis thaliana) (UniProt O80842); assay: FRET
[2] = target: cpFtsY (Arabidopsis thaliana) (UniProt O80842); assay: FRET; remark: listed apart in the source
[3] = target: cpFtsY (Arabidopsis thaliana) (UniProt O80842); assay: FRET; remark: listed apart in the source
[4] = target: cpSRP54 peptide RRKRp10 RRKRp10 (Arabidopsis thaliana) (UniProt P37107)
[5] = target: RRKRp10 (cpSRP54 C-terminal peptide) (Arabidopsis thaliana) (UniProt P37107)
[6] = target: LHCP L11 peptide (Arabidopsis thaliana); assay: FA
[7] = target: Alb3 C-terminus (Arabidopsis thaliana) (UniProt Q8LBP4); assay: FA
[8] = target: LHCP L11 peptide (Arabidopsis thaliana); assay: FA; remark: listed apart in the source
[9] = target: cpSRP54 M domain (Arabidopsis thaliana) (UniProt P37107); assay: SPR
[10] = target: LHCP L18 peptide (Arabidopsis thaliana); assay: ITC
[11] = target: LHCP L18 peptide (Arabidopsis thaliana); assay: ITC; remark: listed apart in the source
[12] = target: cpSRP54 (Arabidopsis thaliana) (UniProt P37107); assay: MST
[13] = target: cpSRP54 (Arabidopsis thaliana) (UniProt P37107); assay: FCS

Chain of cpFtsY (Arabidopsis thaliana) (O80842 41-366): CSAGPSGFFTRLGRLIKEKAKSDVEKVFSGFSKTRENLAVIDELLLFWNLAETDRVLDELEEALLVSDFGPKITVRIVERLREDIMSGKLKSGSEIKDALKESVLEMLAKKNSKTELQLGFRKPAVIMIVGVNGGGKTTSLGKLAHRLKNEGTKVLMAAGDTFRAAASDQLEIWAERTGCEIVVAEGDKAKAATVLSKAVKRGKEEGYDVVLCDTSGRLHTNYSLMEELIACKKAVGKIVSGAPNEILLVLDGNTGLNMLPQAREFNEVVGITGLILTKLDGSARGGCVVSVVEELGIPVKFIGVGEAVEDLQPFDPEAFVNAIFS
Chain of cpSRP54 (P37107 76-564): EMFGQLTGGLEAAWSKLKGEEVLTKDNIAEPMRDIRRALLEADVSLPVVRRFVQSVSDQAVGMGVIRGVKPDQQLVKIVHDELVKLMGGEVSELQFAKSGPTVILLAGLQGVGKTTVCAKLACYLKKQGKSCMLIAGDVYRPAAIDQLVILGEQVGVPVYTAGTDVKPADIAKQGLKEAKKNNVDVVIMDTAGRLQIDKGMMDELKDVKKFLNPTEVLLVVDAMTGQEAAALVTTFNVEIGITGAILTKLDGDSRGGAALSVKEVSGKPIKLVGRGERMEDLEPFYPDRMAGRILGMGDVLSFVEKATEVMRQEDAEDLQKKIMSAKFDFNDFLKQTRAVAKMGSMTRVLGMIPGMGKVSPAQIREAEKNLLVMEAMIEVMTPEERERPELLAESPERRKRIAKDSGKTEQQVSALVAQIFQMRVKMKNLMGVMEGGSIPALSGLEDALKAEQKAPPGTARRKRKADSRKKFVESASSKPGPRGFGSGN
Chain of Alb3 C-terminus (Arabidopsis thaliana) (Q8LBP4 339-462): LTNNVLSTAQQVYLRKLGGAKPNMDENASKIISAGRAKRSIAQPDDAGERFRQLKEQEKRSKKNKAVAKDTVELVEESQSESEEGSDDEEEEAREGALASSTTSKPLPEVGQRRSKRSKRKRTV
Chain of cpSRP54 (Arabidopsis thaliana) (P37107 76-564): as the sequence (P37107 76-564) above
Chain of cpSRP54 NG domain (P37107 76-370): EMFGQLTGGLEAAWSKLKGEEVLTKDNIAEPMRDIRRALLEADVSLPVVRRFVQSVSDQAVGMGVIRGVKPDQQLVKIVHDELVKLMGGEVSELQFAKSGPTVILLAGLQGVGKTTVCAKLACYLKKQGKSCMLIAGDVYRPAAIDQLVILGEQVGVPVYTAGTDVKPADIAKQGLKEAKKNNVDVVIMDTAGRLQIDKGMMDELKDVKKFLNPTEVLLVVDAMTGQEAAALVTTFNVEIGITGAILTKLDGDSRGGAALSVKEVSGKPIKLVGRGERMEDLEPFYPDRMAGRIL
Chain of cpSRP54 M domain (Arabidopsis thaliana) (P37107 371-564): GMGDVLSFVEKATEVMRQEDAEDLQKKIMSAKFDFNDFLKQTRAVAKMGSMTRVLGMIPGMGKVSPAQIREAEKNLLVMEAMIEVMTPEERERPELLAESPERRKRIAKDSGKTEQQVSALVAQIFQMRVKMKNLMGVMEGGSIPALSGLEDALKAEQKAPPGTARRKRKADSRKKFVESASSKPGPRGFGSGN
Chain of cpSRP54 peptide RRKRp10 RRKRp10 (Arabidopsis thaliana) (P37107 whole entry, looked up, tested part not stated): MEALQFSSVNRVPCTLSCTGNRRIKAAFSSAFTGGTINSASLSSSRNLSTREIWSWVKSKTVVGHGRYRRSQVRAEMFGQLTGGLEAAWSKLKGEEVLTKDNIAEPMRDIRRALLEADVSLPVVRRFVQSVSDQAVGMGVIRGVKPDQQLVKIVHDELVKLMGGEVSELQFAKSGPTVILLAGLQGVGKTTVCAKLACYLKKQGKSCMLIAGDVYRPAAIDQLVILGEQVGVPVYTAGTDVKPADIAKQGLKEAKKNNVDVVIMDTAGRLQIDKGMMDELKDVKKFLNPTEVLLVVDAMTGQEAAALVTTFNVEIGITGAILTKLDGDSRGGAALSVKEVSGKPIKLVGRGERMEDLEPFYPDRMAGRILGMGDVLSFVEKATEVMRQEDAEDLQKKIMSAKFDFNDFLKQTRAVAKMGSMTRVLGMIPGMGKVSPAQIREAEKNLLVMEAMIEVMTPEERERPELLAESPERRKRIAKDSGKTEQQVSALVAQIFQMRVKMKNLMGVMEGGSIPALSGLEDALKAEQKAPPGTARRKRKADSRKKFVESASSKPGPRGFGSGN
Chain of RRKRp10 (cpSRP54 C-terminal peptide) (Arabidopsis thaliana) (P37107 whole entry, looked up, tested part not stated): as above

Kd [1] [nM] | Kd [2] [nM] | Kd [3] [nM] | Kd [4] [nM] | Kd [5] [nM] | Kd [6] [nM] | Kd [7] | Kd [8] [nM] | Kd [9] [nM] | Kd [10] | Kd [11] [nM] | Kd [12] [nM] | Kd [13] [nM] | Substance
130 | 770 | 2340 | – | – | – | – | – | – | – | – | – | – | cpSRP54 (from UniProt P37107)
– | – | 12000 | – | – | – | – | – | – | – | – | – | – | cpSRP54 NG domain (from UniProt P37107)
– | – | – | 390 | 390 | 22 | 18000 nM and 12000 nM and 15000 nM | 11 | 2.5 | 1170 nM and 322 nM | 107 | 50 | 95 | cpSRP43 (from UniProt O22265)
